Test results taken from US20250177505A1, “CANCER VACCINE COMPRISING EPITOPE OF C-MET AND EPITOPE OF HIF1ALPHA, AND USE THEREOF” (KOREA UNIVERSITY RESEARCH AND BUSINESS FOUNDATION, priority 2022, published 2025).
Entries after “also recorded” stand apart in the source; their conditions may differ.

How the values were obtained:
[1] = tested on: M6-bone cells; experiment: Western blot of IFN-γ-treated cells; assay type: cell-based, mouse; details: 100 ng/ml IFN-γ, 18 hours
Method: M6 and M6-bone cells were stimulated with 100 ng/ml recombinant mouse IFN-γ and cultured in a medium containing 1% FBS for 18 hours. The cells were lysed in a buffered mixture of a PRO-PREPTM protein extraction solution (iNtRON Biotechnology, 17081) and a phosphatase inhibitor cocktail (Gen DEPOT, p3200-001). Protein concentration was measured using the Bradford assay (Bio-rad, 500-0006, Hercules, CA, USA). 30 μg of the protein was separated by SDS-polyacrylamide gel electrophoresis and transferred to a PVDF membrane (10600023), and then the membrane was blocked with Tris-buffered saline containing 0.05% Tween 20 and 5% non-fat milk powder for 1 hour. The PVDF membrane was incubated overnight at 4° C. with primary antibodies. HIF1α (NB100-105, Novusbio), c-MET, Akt (Cat #9272), and p-Akt (Cat #9271) antibodies were purchased from Cell Signaling Technology (Beverly, MA, USA), and β-actin (Cat #A5316) was purchased from Sigma (Saint Louis, MO, USA). Subsequently, a horseradish peroxidase-conjugated secondary antibody was cultured at room temperature for 1 hour. Immunoreactive bands were detected with a chemiluminescent reagent (Cat #RPN2106).

[2] = tested on: bone marrow monocytes (BMMs); experiment: Osteoclastogenesis analysis in bone marrow monocytes; assay type: cell-based, C3(1)-Tag mice; details: BMM with M-CSF 30 ng/mL, RANKL 100 ng/mL, IFN-γ 50, 100 ng/mL; vs positive control
Method: Primary mouse bone marrow monocytes (BMMs) were isolated from the hind limb bones (two femurs and two tibiae) of 4 to 8 week-old C3(1)-Tag mice. The mouse BMMs were flushed into a 15 ml tube via 8 ml of a serum-free 2 mM EDTA α-MEM medium. A Lymphocyte Separation Medium (LSM; MP Biomedicals; Catalog No. 50494) was dispensed into a new tube, 8 ml of the flushed BMMs were gently added thereon and centrifuged at 1600 rpm for 20 minutes at room temperature. The isolated BMMs were inoculated at 3×10^5 cells/well in a 48-well plate with 0.5 mL of a medium per well and incubated in α-MEM containing 10% FBS and 1% antibiotics.
BMMs in a negative control group were treated with M-CSF (30 ng/mL), BMMs in a positive control group were treated with M-CSF and RANKL (100 ng/mL), and BMMs in an experimental group were stimulated by treatment with M-CSF, RANKL, and IFN-γ(50, 100 ng/mL). On days 1, 3, 5, and 7 of culture, the medium was replaced, and each experimental group was treated with M-CSF, RANKL, and IFN-γ. After 9 days of culture, staining was performed using a TRAP staining kit (KT-008, KAMIYA biomedical company, Seattle, WA, USA) after fixing the cells with 10% formalin. For each well, TRAP-positive (TRAP^+) multinucleated cells (TRAP^+ MNC) were counted. All the experiments were independently repeated three times.

B1: IFN-γ: recombinant mouse IFN-γ, key cytokine of T-helper type 1 immunity (protein, UniProt P01580 23-155, looked up)
Interferon gamma: HGTVIESLESLNNYFNSSGIDVEEKSLFLDIWRNWQKDGDMKILQSQIISFYLRLFEVLKDNQAISNNISVIESHLITTFFSNSKAKKDAFMSIAKFEVNNPQVQRQAFNELIRVVHQLLPESSLRKRKRSRC
For B1, the “Expression of c-MET” value [1] was “decreased”, the “Expression of p-Akt” value [1] was “decreased” and the osteoclastogenesis in vitro [2] was “completely inhibited; also recorded: inhibits”.
